Experimental findings from the Human Domainome abundance scans (Beltran et al. 2025) are described below.

± gives the uncertainty stated by the source.

B1: Activity-dependent neuroprotector homeobox protein, residues 770 to 810; numbered along this chain, Q9H2P0 (parent)
chain: FLTKYFNKQPYPTRREIEKLAASLWLWKSDIASHFSNKRKK

This series covers variants of B1. Kind of series: abundance fitness (aPCA) (normalised: wild type 0, dead -1); higher = more abundant; growth selection in yeast, the domain comes from the species named. The note with it: Homo sapiens.
FLTKYFNKQPYPTFREIEKLAASLWLWKSDIASHFSNKRKK: the abundance fitness was -0.392 ± 0.14.
With FLTKYFNKQPYPTRREIEKLAASLCLWKSDIASHFSNKRKK, the abundance fitness is -0.14 ± 0.071.
The figure for FLTKYFNKQPYPTRREIEKLAASLALWKSDIASHFSNKRKK is 0.064 ± 0.065; for FLTKYFNKQPYPTRREIEKLAASLWCWKSDIASHFSNKRKK it is -0.014 ± 0.068; for FLTKYFNKQPYPTRREIEKLAASLWRWKSDIASHFSNKRKK it is 0.198 ± 0.049.
The figure for FLTKYFNKQPYPTRREIEKLAASLWLHKSDIASHFSNKRKK is -0.137 ± 0.081.
The figure for FLTKYFNKQPYPTRREIEKLAASLWLYKSDIASHFSNKRKK is -0.227 ± 0.066; for FLTKYFNKQPYPTRREIEKLAASLWLRKSDIASHFSNKRKK it is 0.025 ± 0.052.
As for FLTKYFNKQPYPTRREIEKLAASLWLWFSDIASHFSNKRKK, the abundance fitness came out at 0.435 ± 0.06.
The figure for FLTKYFNKQPYPTRREIEKLAASLWLWRSDIASHFSNKRKK is -0.188 ± 0.049; for FLTKYFNKQPYPTRREIEKLAASLWLWHSDIASHFSNKRKK it is -0.421 ± 0.11.
As for FLTKYFNKQPYPTRREIEKLAASLWLWASDIASHFSNKRKK, the abundance fitness worked out at 0.333 ± 0.048.
In the case of FLTKYFNKQPYPTRREIEKLAASLWLWVSDIASHFSNKRKK it was 0.508 ± 0.06.
The figure for FLTKYFNKQPYPTRREIEKLAASLWLWMSDIASHFSNKRKK is 0.438 ± 0.06; for FLVKYFNKQPYPTRREIEKLAASLWLWKSDIASHFSNKRKK it is -0.544 ± 0.066; for FLQKYFNKQPYPTRREIEKLAASLWLWKSDIASHFSNKRKK it is -0.164 ± 0.089.
In the case of FLMKYFNKQPYPTRREIEKLAASLWLWKSDIASHFSNKRKK it was -0.395 ± 0.12; in that of FLFKYFNKQPYPTRREIEKLAASLWLWKSDIASHFSNKRKK, -0.613 ± 0.14; in that of FLWKYFNKQPYPTRREIEKLAASLWLWKSDIASHFSNKRKK, -0.786 ± 0.11.
For FLTKYFRKQPYPTRREIEKLAASLWLWKSDIASHFSNKRKK, the abundance fitness is -0.174 ± 0.045.
The figure for FLTKYFVKQPYPTRREIEKLAASLWLWKSDIASHFSNKRKK is -0.841 ± 0.11; for FLTKLFNKQPYPTRREIEKLAASLWLWKSDIASHFSNKRKK it is -0.322 ± 0.095; for FLTKGFNKQPYPTRREIEKLAASLWLWKSDIASHFSNKRKK it is -0.812 ± 0.49.
In the case of FLTKYFNKQPYPTRRECEKLAASLWLWKSDIASHFSNKRKK it was -0.024 ± 0.072; in that of FLTKYFNKQPYPTRREKEKLAASLWLWKSDIASHFSNKRKK, -0.404 ± 0.09; in that of FLTKYFNKQPYPTRRESEKLAASLWLWKSDIASHFSNKRKK, -0.455 ± 0.061.
The figure for FLTKYFNKQPYPTRREVEKLAASLWLWKSDIASHFSNKRKK is -0.025 ± 0.053; for FLTKYFNKQPYPTRREIEKLAASLWLWKSDIAVHFSNKRKK it is -0.276 ± 0.074.
For FLTKYFNKQPYPTRREIEKLAASLWLWKSDIAGHFSNKRKK, the abundance fitness was -0.023 ± 0.051.
In the case of FLTKYFNKQPYPTRREIEKLAASLWLWKSDIAQHFSNKRKK it was -0.033 ± 0.062.
In the case of FLTKYFNKQPYPTRREIEKLQASLWLWKSDIASHFSNKRKK it was -0.328 ± 0.17.
In the case of FLTKYFNKQPYPTRREIEKLEASLWLWKSDIASHFSNKRKK it was -0.39 ± 0.12; in that of FLTKYFNKQPYPTRREIEKLGASLWLWKSDIASHFSNKRKK, 0.202 ± 0.059.
FLTKYFNKQPYPTRREIEKLHASLWLWKSDIASHFSNKRKK: the abundance fitness was -0.413 ± 0.075.
The figure for FLTKYFNKQPTPTRREIEKLAASLWLWKSDIASHFSNKRKK is 0.135 ± 0.061; for FLTKYFNKQPSPTRREIEKLAASLWLWKSDIASHFSNKRKK it is 0.275 ± 0.047.
Regarding FLTKYFNKQPDPTRREIEKLAASLWLWKSDIASHFSNKRKK, the abundance fitness was -0.086 ± 0.16.
For the variant FLTKYFNKQGYPTRREIEKLAASLWLWKSDIASHFSNKRKK, the abundance fitness is -0.129 ± 0.084.
In the case of FLTKYFNKQCYPTRREIEKLAASLWLWKSDIASHFSNKRKK it was 0.011 ± 0.077; in that of FLTKYFNKQKYPTRREIEKLAASLWLWKSDIASHFSNKRKK, -0.139 ± 0.095; in that of FLTKYFNKQNYPTRREIEKLAASLWLWKSDIASHFSNKRKK, 0.09 ± 0.078.
The figure for FLTKYFNKQPYPTRREIEKLAASLWLWKSDYASHFSNKRKK is -0.189 ± 0.064; for FLTKYFNKQPYPTRREIEKLAASLWLWKSDFASHFSNKRKK it is -0.197 ± 0.07; for FLTKYFNKQPYPTRREIEKLAASLWLWKSDLASHFSNKRKK it is -0.043 ± 0.05.
For FLTKYFNKQPYPTRREIEKLAASLWLWKSDRASHFSNKRKK, the abundance fitness was -0.205 ± 0.053.
The figure for FLTKYFNKQPYPTREEIEKLAASLWLWKSDIASHFSNKRKK is -0.02 ± 0.085; for FLTKYFNKQPYPTRSEIEKLAASLWLWKSDIASHFSNKRKK it is -0.018 ± 0.053.
FLTKYFNKQPYPTRGEIEKLAASLWLWKSDIASHFSNKRKK: the abundance fitness is -0.088 ± 0.061.
In the case of FLTKYFNKQPYPTRDEIEKLAASLWLWKSDIASHFSNKRKK it was -0.278 ± 0.15; in that of FLTKYFNKQPYPTRREIEKLAISLWLWKSDIASHFSNKRKK, -0.368 ± 0.13; in that of FLTKYFNKQPYPTRREIEKLACSLWLWKSDIASHFSNKRKK, -0.229 ± 0.11.
With FLTKYFNKQPYPTRREIEKLAASLWLWKSDIASHFSNKRKV, the abundance fitness was -0.309 ± 0.078.
In the case of FLTKYFNKQPYPTRREIEKLAASLWLWKSDIASHFSNKRKP it was -0.188 ± 0.083; in that of FLTKYFNKQPYPTRREIEKLAASLWLWKSDIASHFSNKRKD, -0.015 ± 0.097.
For FLTKYFNKQPYPTRREIEKLAASLWLWKSDIASHFSNKRKL, the abundance fitness was -0.4 ± 0.097.
The figure for FLTKYFNKQPYPTRREIEHLAASLWLWKSDIASHFSNKRKK is -0.413 ± 0.17.
The figure for FLTKYFNKQPYPTRREIESLAASLWLWKSDIASHFSNKRKK is -0.413 ± 0.067; for FLTKYFNKQPYPTRREIEKEAASLWLWKSDIASHFSNKRKK it is -1.02 ± 0.25.
In the case of FLTKYFNKQPYPTRREIEKFAASLWLWKSDIASHFSNKRKK it was 0.042 ± 0.06; in that of FLTKYFNKQPYPTRREIEKTAASLWLWKSDIASHFSNKRKK, -0.106 ± 0.076; in that of FLTKYFNKQPYPTRREIEKPAASLWLWKSDIASHFSNKRKK, -0.124 ± 0.057.
Consider FLTKYFNKQPYPTRREIEKRAASLWLWKSDIASHFSNKRKK, for which the abundance fitness was -0.144 ± 0.064.
